Assays:
ERK = test: Time-series immunoblot of phosphorylated ERK; assay type: cell-based, rat; conditions: PC12 cells; 1 nM; peak at 15 min, below basal at 30 min, then recovery; n = 3
Experimental: (§1) PC12 or HT-22 cells were lysed in 100 mM Tris-Cl (pH 6.8) with 4% SDS. The lysates were loaded onto sodium dodecyl sulfate-polyacrylamide gel electrophoresis (SDS-PAGE) (8–10%), and the proteins were transferred onto the nitrocellulose membrane. The membrane was blocked with 0.1% TBST and 5% non-fat dry milk at 25°C for 30 min. Primary antibodies were diluted in 0.1% TBST and 3% bovine serum albumin (BSA). The primary antibodies included anti-pJAK2 (#3776, Cell Signaling Technology, USA), anti-JAK2 (#3230, Cell Signaling Technology, USA), anti-pSTAT5 (#9351, Cell Signaling Technology, USA), anti-STAT5 ([…], Cell Signaling Technology, USA), anti-pAKT (#9271, Cell Signaling Technology, USA), anti-AKT (#9272, Cell Signaling Technology, USA), anti-pERK (#9101, Cell Signaling Technology, USA) anti-ERK (#9102, Cell Signaling Technology, USA), anti-EPOR (#sc-365662, Santa Cruz Biotechnology, USA), anti-β-Actin (Santa Cruz Biotechnology, USA), anti-Bax (Santa Cruz Biotechnology, USA), anti-cleaved Casp3 (Cell Signaling Technology, USA), and anti-cleaved Parp1 (Cell Signaling Technology, USA).

JAK2 = test: Time-series immunoblot of phosphorylated JAK2; assay type: cell-based, rat; conditions: undifferentiated PC12 cells; 1 nM; up to 90 min; normalized by JAK2; n = 3
Experimental: as §1

[1] = system: undifferentiated PC12 cells; test: Cell proliferation (MTS) under low serum; assay type: cell-based, rat; conditions: 0.5% fetal bovine serum, 48 h, reEPO 10 IU/ml, peptides 10 ng/ml, n = 5, Fig. 4c
Experimental: PC12 cells (#CRL-1721, ATCC, USA), a rat pheochromocytoma cell line derived from the adrenal medulla (#CRL-1721, ATCC, USA), were seeded on a dish, which was coated by poly L-lysine (0.01%; Sigma Chemical Co., USA), and grown in RPMI 1640 medium (#11875093, Gibco, USA), supplemented with 10% heat-inactivated horse serum (#26050088, Gibco, USA), 5% fetal bovine serum (FBS) (#SH30919.03, Hyclone, USA), and 1% penicillin/streptomycin at 37°C with 5% CO2. […]
Cell viability was evaluated by 3-[(4,5-dimethylthiazol-2-yl)-5,3-carboxymethoxyphenyl]-2-(4-sulfophenyl)-2H tetrazolium, inner salt (MTS) reduction assay (CellTiter 96 Aqueous One Solution Cell Proliferation Assay, Promega, Madison, WI, USA). […] The intracellular soluble formazan produced by cellular reduction of the MTS was determined by recording the absorbance at 490 nm using a microplate reader (VersaMax, Molecular Devices, USA). Cell proliferation was also evaluated by the MTS assay. […] The next day, the initial cell number was counted; after 48 h, under low FBS concentration (0.5%), with or without reEPO and peptides, cell number was measured by the MTS assay.

HT-22 cells = test: Cell viability after hypoxia and re-oxygenation; assay type: cell-based, mouse; conditions: hypoxia 18 h, re-oxygenation 3 h, treatment 19 h; reEPO 0.5 IU/ml, ML1-h3 1 ng/ml; n = 12
Experimental: HT-22 cells (kindly provided by Prof. Gil-Saeng Jeong in Keimyung University), an immortalized mouse hippocampal cell line, were cultured at 37°C and 5% CO2 in Dulbecco's modified eagle medium (DMEM, Invitrogen, USA) supplemented with 10% FBS and 1% penicillin/streptomycin at 37°C and 5% CO2.
Cell viability was evaluated by 3-[(4,5-dimethylthiazol-2-yl)-5,3-carboxymethoxyphenyl]-2-(4-sulfophenyl)-2H tetrazolium, inner salt (MTS) reduction assay (CellTiter 96 Aqueous One Solution Cell Proliferation Assay, Promega, Madison, WI, USA). Briefly, differentiated neuronal-PC12 cells were treated with H2O2 (300 μM) with or without reEPO and peptides for 24 h. The PC12 cells were washed with PBS; 20 ul MTS solution was added to each well with 100 μl PBS, and the cells were incubated for 3 h at 37°C and 5% CO2. The intracellular soluble formazan produced by cellular reduction of the MTS was determined by recording the absorbance at 490 nm using a microplate reader (VersaMax, Molecular Devices, USA). Cell proliferation was also evaluated by the MTS assay. Undifferentiated PC12 cells were seeded into a 96-well plate (5x10^4 cells/well). The next day, the initial cell number was counted; after 48 h, under low FBS concentration (0.5%), with or without reEPO and peptides, cell number was measured by the MTS assay.
The HT-22 cells were seeded onto 96-well or 6-well plates. […]

male mice (C57BL/6 N) = test: Measurement of the hematopoietic effect after repeated subcutaneous injection; assay type: in vivo; conditions: mouse, three times a week for four weeks, reEPO 150 IU/kg, ML1-h3 0.2 mg/kg
Experimental: The protocol of this experiment was approved by the Animal Care and Use Committee of the DGIST (DGIST-IACUC-21090804-0000). After two weeks for quarantine and acclimatization, male mice (C57BL/6 N, Koatech, Korea) were subcutaneously injected with vehicle (n = 6), reEPO (n = 6, 150 IU/kg), or ML1-h3 (n = 6, 0.2 mg/kg) three times a week for four weeks. After three days of final injection, they were anesthetized by injection of zoletil (50 mg/kg), and their blood was gathered from posterior vena cava into an EDTA-coated tube (#367863, BD Vacutainer, USA) using a syringe. The blood samples were analyzed by an automatic hematology analyzer (#ADIVIA 2120i, SIEMENS Healthineers, Germany) in DGMIF (Korea).

[2] = system: differentiated neuronal PC12 cells; test: Cellular ROS level by H2DCFDA under H2O2; assay type: cell-based, rat; conditions: H2O2 for 6 h; H2DCFDA staining; n = 5; Fig. 4b
Experimental: PC12 cells (#CRL-1721, ATCC, USA), a rat pheochromocytoma cell line derived from the adrenal medulla (#CRL-1721, ATCC, USA), were seeded on a dish, which was coated by poly L-lysine (0.01%; Sigma Chemical Co., USA), and grown in RPMI 1640 medium (#11875093, Gibco, USA), supplemented with 10% heat-inactivated horse serum (#26050088, Gibco, USA), 5% fetal bovine serum (FBS) (#SH30919.03, Hyclone, USA), and 1% penicillin/streptomycin at 37°C with 5% CO2. For neuronal differentiation, PC12 cells were plated at a density of 1.25x10^3 cell/cm^2 into 96-well plates coated with collagen 1 (#354236, BD Biosciences, USA) and grown in RPMI 1640 medium supplemented with 50 ng/ml nerve growth factor (NGF) (BD Biosciences, USA) and 0.5% FBS for 10 days. The NGF-supplemented media was replaced with fresh media every 3 days during neuronal differentiation.
The cellular ROS level was measured using 2′,7′-dichlorodihydrofluorescein diacetate (H2DCFDA) (#D399, Invitrogen, USA). The cells were incubated with 5 μM H2DCFDA in PBS for 30 min, washed with PBS, and then resuspended in the medium for 2 h. After treatment of H2O2 without or with reEPO, or peptide, we monitored the oxidative stress by measuring the fluorescence intensities of H2DCFDA by using excitation and emission wavelengths of 485 nm and 535 nm, respectively.

reEPO: Recombinant human EPO (Epoetin-α, CJ HealthCare Corporation)
Level of phosphorylated ERK (pERK) over time (ERK): acutely increased the level of phosphorylated ERK
Level of phosphorylated JAK2 (pJAK2) over time (JAK2): upregulated the level of phosphorylated JAK2 in ^1007/1008Tyr (pJAK2), an active form of JAK2 at 30–60 min; pJAK2 returned to the basal level at 90 min
Cell proliferation (cell number) [1]: significantly increased the proliferation
Cell viability under H/R (HT-22 cells): suppressed the loss of cell viability
Body weight (male mice (C57BL/6 N); n = 6): No significant difference
Cell number of platelet (male mice (C57BL/6 N); n = 6, versus vehicle): did not significantly affect
Content of haemoglobin (male mice (C57BL/6 N); n = 6, versus vehicle): dramatically increased
Hematocrit level (male mice (C57BL/6 N); n = 6, versus vehicle): dramatically increased
Number of erythrocytes (male mice (C57BL/6 N); n = 6, versus vehicle): dramatically increased
Number of granulocytes, including neutrophils and eosinophils (male mice (C57BL/6 N); n = 6, versus vehicle): considerably decreased
Number of lymphocytes (male mice (C57BL/6 N); n = 6, versus vehicle): did not significantly affect
Number of monocytes (male mice (C57BL/6 N); n = 6, versus vehicle): did not significantly affect
Number of reticulocytes (male mice (C57BL/6 N); n = 6, versus vehicle): dramatically increased
Total number of white blood cells (male mice (C57BL/6 N); n = 6, versus vehicle): did not significantly affect
Level of reactive oxygen species (ROS) induced by H2O2 [2]: decreased the levels of reactive oxygen species (ROS)
